Assay results taken from patent publication US20160108128A1 (CANCER RESEARCH TECHNOLOGY, published 2016).
Residue numbers refer to the chain shown, from its start.

B1: J1-183D variant 10 (antibody, human IgG1, V domains shown)
VH: QVQLVQSGAELKKPGASVKVSCKVSGYAFTDYAIHWIRQAPGQGLEWMGIINTYYGDSKYAQKFQGRVTMTVDTSTSTAYMELSSLRSEDTAVYYCARGYDGFAYWGQGTLVTVSS
VL: DIQMTQSPSSLSASVGDRVTITCRTSENIYSYLTWYQQKPGKAPKLLIYNAKILDSGVPSRFSGSGSGTDFTLTISSLQPEDFATYYCQHHYDIPWTFGGGTKLEIKR
notes: human IgG1; also called J1-183DV10; V10
B2: J1-183D variant 12 (antibody, human IgG1, V domains shown)
VH: B1 VH with L11V, V24A, A28T, I37V
VL: B1 VL
notes: human IgG1; also called J1-183DV12; V12
B3: J1-183D variant 7 (antibody, human IgG1, V domains shown)
VH: B1 VH with I37V
VL: B1 VL with I53T, D55A
notes: human IgG1; also called J1-183DV7; V7
B4: J1-183D variant 5 (antibody, human IgG1, V domains shown)
VH: B1 VH with A61N, Q65K, G66D, T74K
VL: B1 VL with I53T, D55A
notes: human IgG1; also called J1-183DV5; V5
B5: J1-183D variant 14 (antibody, human IgG1, V domains shown)
VH: B1 VH
VL: B1 VL with N50H
notes: human IgG1; also called J1-183DV14; V14
B6: J1-183D variant 2 (antibody, human IgG1, V domains shown)
VH: B1 VH
VL: B1 VL with I48V, D55A, S56A
notes: human IgG1; also called J1-183DV2; V2
B7: J1-183D variant 1 (antibody, human IgG1, V domains shown)
VH: B1 VH with A61N, Q65K, G66D, T74K
VL: B1 VL with I48V, D55A, S56A
notes: human IgG1; also called J1-183DV1; V1
B8: J1-183D variant 11 (antibody, human IgG1, V domains shown)
VH: B1 VH with I37V
VL: B1 VL
notes: human IgG1; also called J1-183DV11; V11
B9: J1-183D variant 3 (antibody, human IgG1, V domains shown)
VH: B1 VH with I37V
VL: B1 VL with I48V, D55A, S56A
notes: human IgG1; also called J1-183DV3; V3
B10: J1-183D variant 15 (antibody, human IgG1, V domains shown)
VH: B1 VH with I37V
VL: B1 VL with N50H
notes: human IgG1; also called J1-183DV15; V15
B11: J1-183D variant 8 (antibody, human IgG1, V domains shown)
VH: B1 VH with L11V, V24A, A28T, I37V
VL: B1 VL with I53T, D55A
notes: human IgG1; also called J1-183DV8; V8
B12: J1-183D variant 4 (antibody, human IgG1, V domains shown)
VH: B1 VH with L11V, V24A, A28T, I37V
VL: B1 VL with I48V, D55A, S56A
notes: human IgG1; also called J1-183DV4; V4
B13: J1-183D variant 6 (antibody, human IgG1, V domains shown)
VH: B1 VH
VL: B1 VL with I53T, D55A
notes: human IgG1; also called J1-183DV6; V6
B14: J1-183D variant 13 (antibody, human IgG1, V domains shown)
VH: B1 VH with A61N, Q65K, G66D, T74K
VL: B1 VL with N50H
notes: human IgG1; also called J1-183DV13; V13
B15: J1-183D variant 16 (antibody, human IgG1, V domains shown)
VH: B1 VH with L11V, V24A, A28T, I37V
VL: B1 VL with N50H
notes: human IgG1; also called J1-183DV16; V16
B16: J1-183D variant 9 (antibody, human IgG1, V domains shown)
VH: B1 VH with A61N, Q65K, G66D, T74K
VL: B1 VL
notes: human IgG1; also called J1-183DV9; V9
B17: J1-65D variant 14 (antibody, human IgG1, V domains shown)
VH: QVQLVQSGAELKKPGSSVKVSCKASGYTFTDYEMHWVRQAPGQGLEWMGAIQPGGGGTAYAQKFKGRVTLTADKSTSTAYMELSSLRSEDTAVYYCTRRGYDDYPFAYWGQGTLVTVSS
VL: DIQMTQSPSSLSASVGDRVTITCRASQGIHNYLAWYQQKPGKAPKLLIYNAKTLADAVPSRFSGSGSGTDYTLTISSLQPEDFATYYCQQFWSAPWTFGQGTKLEIK
notes: human IgG1; also called J1-65DV14; V14
B18: J1-65D variant 6 (antibody, human IgG1, V domains shown)
VH: B17 VH
VL: DIQMTQSPSSLSASVGDRVTITCRASGNIHNYLAWYQQKPGKAPKLLIYNAKTLADAVPSRFSGSGSGTDYTLTISSLQPEDFATYYCQHFWSAPWTFGGGTKLEIKR
notes: human IgG1; also called J1-65DV6; V6
B19: J1-65D variant 1 (antibody, human IgG1, V domains shown)
VH: B17 VH with A61N
VL: B18 VL with A57D
notes: human IgG1; also called J1-65DV1; V1
B20: J1-65D variant 15 (antibody, human IgG1, V domains shown)
VH: B17 VH with L11V, K65Q
VL: B17 VL
notes: human IgG1; also called J1-65DV15; V15
B21: J1-65D variant 16 (antibody, human IgG1, V domains shown)
VH: B17 VH with L11V, K65Q, L70I
VL: B17 VL
notes: human IgG1; also called J1-65DV16; V16
B22: J1-65D variant 2 (antibody, human IgG1, V domains shown)
VH: B17 VH
VL: B18 VL with A57D
notes: human IgG1; also called J1-65DV2; V2
B23: J1-65D variant 13 (antibody, human IgG1, V domains shown)
VH: B17 VH with A61N
VL: B17 VL
notes: human IgG1; also called J1-65DV13; V13
B24: J1-65D chimeric (antibody, human IgG1, V domains shown)
VH: QVQLQQPGAELVRPGASVKLSCKALGYTFTDYEMHWVKETPVHGLEWIGAIQPGGGGTAYNQKFKGKATLTADKSSSTAYMELSSLTSEDSAVYYCTRRGYDDYPFAYWGQGTLVTVSS
VL: DIQLTQSPASLSASVGETVTITCRASGNIHNYLAWYQQKQGKSPQLLVYNAKTLADDIPSRFSGSGSGTQYSLKINSLQPEDFGSYYCQHFWSAPWTFGGGTKLEIK
notes: chimeric antibody with unaltered CDRs; vectors encode human IgG1
B25: J1-183D chimeric (antibody, human IgG1, V domains shown)
VH: QVQLQQPGTELVRPGVSVKISCKVSGYAFTDYAIHWIMQSHAKSLEWIGIINTYYGDSKYNQKFKDKATMTVDKSSNTAYMELARLTSEDSAIYYCARGYDGFAYWGQGTLVTVSS
VL: DIQLTQSPASLSASVGETVTFTCRTSENIYSYLTWYQQKQGKSPQLLVYNAKILAAGVPSRFSGYGSGTQFSLKINSLQPEDFGTYYCQHHYDIPWTFGGGTKLEIK
notes: as for B24

target: T1, J1 DSL-EGF3 soluble recombinant protein (human Jagged 1 amino acids 185-335) (human, UniProt P78504 185-335); experiment: affinity to the immunogen J1-DE3; method not stated
T1 construct: biotinylated in the CD46 ELISA; also called J1-DE3; DSL+EGF1-3
T1 sequence (P78504 185-335, form in doubt): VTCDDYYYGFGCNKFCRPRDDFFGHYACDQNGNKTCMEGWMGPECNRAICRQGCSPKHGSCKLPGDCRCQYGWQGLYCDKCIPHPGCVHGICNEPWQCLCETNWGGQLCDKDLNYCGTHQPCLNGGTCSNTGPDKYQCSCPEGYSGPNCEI

Kd	Binder
1.77 nM	B1
2.61 nM	B2
1.26 nM	B3
2.75 nM	B4
3.91 nM	B5
2.19 nM	B6
0.77 nM	B7
2.82 nM	B8
2.55 nM	B9
5.47 nM	B10
1.48 nM	B11
2.76 nM	B12
1.39 nM	B13
1.5 nM	B14
4.86 nM	B15
0.68 nM	B16
58.3 nM	B17
0.223 nM	B18
0.15 nM	B19
39.8 nM	B20
52.1 nM	B21
0.165 nM	B22
14.2 nM	B23

target: T2, murine Jagged 1, full length, on B16F10 cells (mouse, UniProt Q9QXX0 34-1218); experiment: FACS, B16F10-mJAG1 cells, anti-human-APC
T2 construct: whole, on cells; GFP co-expressed; also called mJ1; B16F10-mJAG1
T2 sequence (Q9QXX0 34-1218, one chain of several): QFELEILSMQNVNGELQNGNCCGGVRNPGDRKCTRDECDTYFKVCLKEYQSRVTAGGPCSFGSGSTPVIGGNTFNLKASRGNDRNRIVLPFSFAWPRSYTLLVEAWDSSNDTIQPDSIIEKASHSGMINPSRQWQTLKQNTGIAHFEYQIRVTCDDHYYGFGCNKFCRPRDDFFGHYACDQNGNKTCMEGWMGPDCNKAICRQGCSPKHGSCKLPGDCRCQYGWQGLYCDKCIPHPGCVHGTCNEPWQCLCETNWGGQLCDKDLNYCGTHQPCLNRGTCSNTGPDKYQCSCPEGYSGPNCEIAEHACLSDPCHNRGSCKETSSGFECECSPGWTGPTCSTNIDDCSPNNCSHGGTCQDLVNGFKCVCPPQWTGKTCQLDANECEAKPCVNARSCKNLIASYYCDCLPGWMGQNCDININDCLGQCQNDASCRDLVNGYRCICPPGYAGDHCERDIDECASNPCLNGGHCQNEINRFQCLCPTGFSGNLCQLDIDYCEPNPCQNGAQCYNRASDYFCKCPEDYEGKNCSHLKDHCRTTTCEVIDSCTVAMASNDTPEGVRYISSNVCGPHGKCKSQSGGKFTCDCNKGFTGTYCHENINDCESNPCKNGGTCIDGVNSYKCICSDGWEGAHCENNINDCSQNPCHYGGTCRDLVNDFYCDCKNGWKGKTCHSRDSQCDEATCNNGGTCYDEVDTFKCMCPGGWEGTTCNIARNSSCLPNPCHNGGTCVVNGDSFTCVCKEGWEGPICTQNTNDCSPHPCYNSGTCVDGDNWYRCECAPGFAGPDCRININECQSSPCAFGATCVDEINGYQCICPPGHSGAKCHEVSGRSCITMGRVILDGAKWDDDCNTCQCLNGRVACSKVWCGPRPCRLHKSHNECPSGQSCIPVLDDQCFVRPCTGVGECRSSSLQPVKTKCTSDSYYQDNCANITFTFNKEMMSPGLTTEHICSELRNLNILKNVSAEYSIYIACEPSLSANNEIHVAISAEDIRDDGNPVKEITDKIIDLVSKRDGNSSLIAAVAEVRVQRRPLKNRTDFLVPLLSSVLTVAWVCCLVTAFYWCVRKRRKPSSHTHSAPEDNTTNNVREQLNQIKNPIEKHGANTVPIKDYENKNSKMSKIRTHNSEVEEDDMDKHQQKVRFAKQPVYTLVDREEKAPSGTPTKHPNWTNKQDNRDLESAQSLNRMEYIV
Procedure: FIG. 19. […] Samples were analysed by FACS and the mean fluorescence intensities (MFI) were plotted.
(§1) HEK293 cells transfected with human J1, J2 or FLAG-EGFP-tagged DSL-EGF3 constructs, B16F10 cells transfected with human DLL4 or mouse J1, and human cancer cell lines, were stained with either purified anti-J1 antibodies at 10 μg/ml diluted in FACS wash buffer (2% FBS in PBS+0.1% sodium azide) or neat hybridoma supernatants followed by a allophycocyanin (APC)-conjugated secondary antibody at 1:200 dilution: for murine primary antibodies, used goat anti-mouse-APC (eBioscience); for humanised and chimeric antibodies used goat anti-human IgG (H+L) secondary antibody (Jackson ImmunoResearch Laboratories). After washing, samples were fixed with 1% paraformaldehyde (in PBS) and acquired with a FACSCalibur. FACS data were analysed with FlowJo software (TreeStar Inc.).

binding result	Binder
no binding (tested: 10 ug/ml)	B24
no binding (tested: 10 ug/ml)	B1
no binding (tested: 10 ug/ml)	B2
no binding (tested: 10 ug/ml)	B3
no binding (tested: 10 ug/ml)	B4
no binding (tested: 10 ug/ml)	B5
no binding (tested: 10 ug/ml)	B6
no binding (tested: 10 ug/ml)	B7
no binding (tested: 10 ug/ml)	B8
no binding (tested: 10 ug/ml)	B9
no binding (tested: 10 ug/ml)	B10
no binding (tested: 10 ug/ml)	B11
no binding (tested: 10 ug/ml)	B12
no binding (tested: 10 ug/ml)	B13
no binding (tested: 10 ug/ml)	B14
no binding (tested: 10 ug/ml)	B15
no binding (tested: 10 ug/ml)	B16
no binding (tested: 10 ug/ml)	B17
no binding (tested: 10 ug/ml)	B18
no binding (tested: 10 ug/ml)	B19
no binding (tested: 10 ug/ml)	B20
no binding (tested: 10 ug/ml)	B21
no binding (tested: 10 ug/ml)	B22
no binding (tested: 10 ug/ml)	B23
no binding (tested: 10 ug/ml)	B25

target: T3, human Jagged 2, full length, on HEK293 cells (human, UniProt Q9Y219 24-1238); experiment: FACS, 293-JAG2 cells, anti-human-APC
T3 construct: whole, on cells; also called J2; hJ2
T3 sequence (Q9Y219 24-1238): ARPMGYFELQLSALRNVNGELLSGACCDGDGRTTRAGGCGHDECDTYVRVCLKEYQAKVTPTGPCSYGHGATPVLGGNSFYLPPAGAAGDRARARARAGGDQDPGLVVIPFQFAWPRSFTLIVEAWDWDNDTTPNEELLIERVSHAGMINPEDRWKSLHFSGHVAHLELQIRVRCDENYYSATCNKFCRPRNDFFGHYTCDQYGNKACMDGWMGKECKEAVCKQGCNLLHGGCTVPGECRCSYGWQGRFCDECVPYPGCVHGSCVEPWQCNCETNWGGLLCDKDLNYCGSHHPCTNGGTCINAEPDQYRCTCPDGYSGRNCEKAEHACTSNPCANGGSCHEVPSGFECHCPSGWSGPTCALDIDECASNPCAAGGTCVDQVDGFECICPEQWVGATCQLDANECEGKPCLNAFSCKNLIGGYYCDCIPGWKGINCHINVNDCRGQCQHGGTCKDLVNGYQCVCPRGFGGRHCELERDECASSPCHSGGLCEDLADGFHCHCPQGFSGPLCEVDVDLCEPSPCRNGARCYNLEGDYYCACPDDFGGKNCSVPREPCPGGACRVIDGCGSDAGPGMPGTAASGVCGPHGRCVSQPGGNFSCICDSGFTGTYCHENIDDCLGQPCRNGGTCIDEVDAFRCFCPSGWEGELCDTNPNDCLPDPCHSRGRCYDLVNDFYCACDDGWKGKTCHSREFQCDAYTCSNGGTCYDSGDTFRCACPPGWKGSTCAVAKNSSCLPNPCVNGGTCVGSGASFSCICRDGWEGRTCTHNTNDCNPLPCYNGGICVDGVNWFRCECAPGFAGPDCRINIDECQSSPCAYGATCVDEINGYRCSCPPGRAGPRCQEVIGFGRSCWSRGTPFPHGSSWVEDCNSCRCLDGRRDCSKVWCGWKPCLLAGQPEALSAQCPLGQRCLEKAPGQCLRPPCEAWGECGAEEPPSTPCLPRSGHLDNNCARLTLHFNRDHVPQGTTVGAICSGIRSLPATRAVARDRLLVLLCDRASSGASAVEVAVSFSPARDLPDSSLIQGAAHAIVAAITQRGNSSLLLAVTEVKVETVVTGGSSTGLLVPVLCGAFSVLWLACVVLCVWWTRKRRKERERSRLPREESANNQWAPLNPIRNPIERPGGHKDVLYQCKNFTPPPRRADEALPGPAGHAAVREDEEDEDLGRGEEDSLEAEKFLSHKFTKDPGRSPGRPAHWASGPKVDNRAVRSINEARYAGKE
Procedure: FIG. 18. […] Samples were analysed by FACS and the mean fluorescence intensities (MFI) were plotted. […] With the exception of J1-65D variants 13-16, all the remaining antibodies effectively bound the human J1 protein.
as §1

binding result	Binder
no binding (tested: 10 ug/ml)	B24
no binding (tested: 10 ug/ml)	B1
no binding (tested: 10 ug/ml)	B2
no binding (tested: 10 ug/ml)	B3
no binding (tested: 10 ug/ml)	B4
no binding (tested: 10 ug/ml)	B5
no binding (tested: 10 ug/ml)	B6
no binding (tested: 10 ug/ml)	B7
no binding (tested: 10 ug/ml)	B8
no binding (tested: 10 ug/ml)	B9
no binding (tested: 10 ug/ml)	B10
no binding (tested: 10 ug/ml)	B11
no binding (tested: 10 ug/ml)	B12
no binding (tested: 10 ug/ml)	B13
no binding (tested: 10 ug/ml)	B14
no binding (tested: 10 ug/ml)	B15
no binding (tested: 10 ug/ml)	B16
no binding (tested: 10 ug/ml)	B17
no binding (tested: 10 ug/ml)	B18
no binding (tested: 10 ug/ml)	B19
no binding (tested: 10 ug/ml)	B20
no binding (tested: 10 ug/ml)	B21
no binding (tested: 10 ug/ml)	B22
no binding (tested: 10 ug/ml)	B23
no binding (tested: 10 ug/ml)	B25
